Biological target: human endogenous fatty acid synthase (FASN) (human) (UniProt P49327)
Experiment: cryo-EM structure; purified endogenous FASN at 0.5-1.0 mg/ml in TBS buffer, alone or incubated 30 min with 1 mM orlistat or 3 mM 1,3-DBP; C2 symmetry applied; condensing and modifying wings refined separately

- stoichiometry N: 2
Substance: human endogenous fatty acid synthase (FASN), P49327 1-2511

— paper PMC12058526
